Source: patent US20240190987A1, “Engineered EpCam Binding Antibodies” (TigaTX, priority 2021, published 2024)

Tests used:
[1] = Differential scanning fluorimetry (DSF) melting temperature; assay type: physicochemical
Method: DSF was performed on a LC480 Lightcycler Instrument II (Roche). Purified recombinant protein was diluted to 5 μM in DSF buffer (PBS, pH 7.4, Sypro Orange 5×) with small molecule (10 μM VTX) or vehicle (0.05% DMSO) and then heated with a temperature gradient (0.01° C./s) from 25 to 95° C. Data were continuously acquired at ˜465 nm (excitation) and ˜580 nm (emission). Data was analyzed to generate first derivative curves in which the curve maximum was reported as the melting temperature of the protein.

cynomolgus macaque PBMCs = test: Surface staining of cyno PBMCs by flow cytometry; assay type: cell-based; conditions: TCRab+, CD4+ and CD8+ subsets
Method: (§1) FIG. 32 depicts Ab1070 binding to human and cynomolgus macaque PBMCs. Binding was measured by flow cytometry using a secondary fluorescent antibody (IgG-PE). T-cell subsets were identified using additional fluorescent antibodies against TCRab, CD4 and CD8 and gated prior to quantifying the median fluorescence intensity (MFI) of the IgG-PE channel. […] The assay was performed with up to 10 μM antibodies (titrated as indicated).
(§2) Peripheral blood mononuclear cells (PBMCs) from healthy cynomolgus macaques (Chinese origin) were obtained commercially (iQ Biosciences, Berkeley, CA). Peripheral blood mononuclear cells (PBMCs) from healthy human donors were isolated from leukapheresis packs (leukopaks) from deidentified healthy adult donors (StemCell Technologies, Vancouver, BC). Human PBMCs were isolated using the EasySep Direct Human PBMC Kit (StemCell Technologies) then cryopreserved in DMEM with 10% FBS and 10% DMSO. Frozen PBMC cryovials were thawed on the day of experiments and washed complete growth media (DMEM+10% FBS+1% penicillin/streptomycin). Cells were resuspended in growth media and transferred to a 96-well U-bottom plate at 55,000 cell/well. Human TruStain FcX (Fc Receptor Blocking Solution; Catalog number 422302; BioLegend, San Diego, CA) was added at a 1:20 final dilution of the manufacturer's stock and incubated for 10 minutes at room temperature in a volume of 25 μL. […]

human PBMCs = test: Surface staining of human PBMCs by flow cytometry; assay type: cell-based; conditions: TCRab+, CD4+ and CD8+ subsets
Method: as §1, §2

[2] = Ab0640 pharmacokinetics in mice; assay type: in vivo; conditions: 6.7 mg/kg single IV, C57BL/6 mice
Method: Plasma samples were collected at 30 min, 24 hr, 72 hr, and 168 hr and concentrations of the antibodies were determined by ELISA.
Female […] mice (age 10-12 weeks) were distributed into 2 groups (n=5 per group). Antibodies were diluted in sterile PBS and injected intravenously at 6.7 mg/kg. Blood (55 μL from the retroorbital sinus) was sampled serially at 4 time points (30 min, 1 day, 3 days, 7 days), processed to plasma, diluted 1:10 in 50% glycerol+PBS, then cryopreserved. Plasma concentrations were quantified using an anti-human IgG sandwich ELISA that was developed and qualified in-house. The capture antibody for the ELISA was goat anti-human IgG (Cat. No. 2049-01; Southern Biotech, Birmingham, AL) coated on 96-well Nunc-Immuno Maxisorp plates (Thermo Fisher Scientific) at […] for 1 hr at 37° C. The detection antibody was mouse anti-human IgG Fc-HRP (Cat. No. 9042-05; Southern Biotech, Birmingham, AL) at 1:32,000 dilution of the manufacturer stock. ELISA coating, blocking, wash, and TMB substrate buffers from BioLegend were used according to the manufacturer's instructions. Non-compartmental pharmacokinetic parameters were calculated using the PKNCA package for R (doi: 10.1007/s10928-015-9432-2).

HCT-116-NR target cells = test: Real-time TDCC by time-lapse microscopy; assay type: cell-based, human; conditions: 10 nM antibodies, 250 nM indinavir, 5 μM quencher, 120 hours
Method: FIG. 42 depicts real-time measurement of TDCC in a co-culture assay for three exemplary T-LITE pairs. […] T-LITE antibodies were held constant at 10 nM with indinavir (250 nM) added to some wells, as indicated (“ON”). In some wells, a conventional TCE (Ab1007) was included as a positive control. In some wells, an anti-indinavir quencher antibody (5 μM) was added at various time points, as indicated (“OFF”). […] In some wells, no indinavir was added (“Always OFF”). Killing was interrupted by the addition of the quencher at earlier time points (“OFF at” 30 min, 24 h, 44 h, or 49 h). Killing occurred at levels similar to the no-quencher condition (“Always ON”) if the quencher was added at the latest time point (68 h). The assay was performed with human T-cells and HCT-116-NR target cells for 120 hours.
The kinetics of TDCC in a co-culture assay were measured using time-lapse microscopy (FIG. 42). […] To test how T-LITE-activated T-cells respond to the removal of indinavir, an “anti-indinavir quencher” was used. […]
Co-cultures of magnetically isolated human T-cells and target cells were prepared as described above for TDCC assays, with some modifications. […] The IncuCyte software was used to quantify Normalized target cell abundance (red object area per image, normalized to T=0 h).

UPLC-SEC retention time = assay type: physicochemical; conditions: Table 13
Method: LS2B antibody clones derived from the phage display campaign were profiled by analytical UPLC-SEC using a Thermo Vanquish Flex HPLC with a MabPAC 4.6×150 mm SEC column equilibrated in 1×PBS-HCl at pH 7.0. Retention time of each clone was compared to Ab0254 to assess overall developability.
UPLC-SEC was performed on a Thermo Scientific Vanquish Flex UHPLC system. Protein was diluted to 1-5 μM in HBS buffer and then 1.5-10 μL of sample was injected onto a MabPAC 4.6×150 mm in 1×PBS-HCl at pH 7.0. Data were continuously acquired at ˜280 nm and processed on the Chromeleon 7 software (Thermo Scientific). For the low pH hold assay, prior to injection on the UHPLC, samples were held at pH 3.5 for 1 hour followed by neutralization. For the complex assembly assay, the MabPAC 4.6×150 mm column was pre-equilibrated with 1×PBS-HCl at pH 7.0 and 10 μM Indinavir.

B1: hSP34v68: humanized SP34 anti-CD3 clone v68, scFv-Fc (antibody)
heavy: EVQLVESGGGLVQPGGSLRLSCAASGFTFNTYAMNWVRQAPGKGLEWVARIRSKYNNYATYYADSVKGRFTISRDDSKSILYLQMNSLRAEDTAVYYCVRHGNFGNSYVSWFAYWGQGTLVTVSSGGGGSGGGGSGGGGSDIQVTQSPSSLSASVGDRVTITCRSSTGAVTTSNYANWVQQKPGKAFKGLIGGTNKLASGVPSRFSGSLSGDDATLTISSLQPEDFATYYCALWYSNLWVFGQGTKLEIKGGGGSDKTHTCPPCPAPEAAGGPSVFLFPPKPKDTLMISRTPEVTCVVVDVSHEDPEVKFNWYVDGVEVHNAKTKPREEQYNSTYRVVSVLTVLHQDWLNGKEYKCKVSNKALGAPIEKTISKAKGQPREPQVYTLPPSRDELTKNQVSLTCLVKGFYPSDIAVEWESNGQPENNYKTTPPVLDSDGSFFLYSKLTVDKSRWQQGNVFSCSVMHEALHNHYTQKSLSLSPGK
modifications: REGION 1..482: note = Ab0640 HC
notes: humanized SP34 anti-CD3 clone v68, scFv-Fc
TM (° C.) ([1]; DSF, hSP34v68 R1 variants (Table 23)): 60.7 °C
binding to cyno PBMC T-cell subsets (cynomolgus macaque PBMCs): Detectable and saturable binding
binding to human PBMC T-cell subsets (human PBMCs): Detectable and saturable binding
half-life [2]: 112 h

B2: Ab1007: conventional TCE positive control (antibody)
heavy 1: EVQLVQSGPGLVQPGGSVRISCAASGYTFTNYGMNWVKQAPGKGLEWMGWINTYTGESTYADSFKGRFTFSLDTSASAAYLQINSLRAEDTAVYYCARFAIKGDYWGQGTLLTVSSASTKGPSVFPLAPSSKSTSGGTAALGCLVKDYFPEPVTVSWNSGALTSGVHTFPAVLQSSGLYSLSSVVTVPSSSLGTQTYICNVNHKPSNTKVDKKVEPKSCDKTHTCPPCPAPEAAGGPSVFLFPPKPKDTLMISRTPEVTCVVVDVSHEDPEVKFNWYVDGVEVHNAKTKPREEQYNSTYRVVSVLTVLHQDWLNGKEYKCKVSNKALGAPIEKTISKAKGQPREPMVFDLPPSREEMTKNQVSLWCMVKGFYPSDIAVEWESNGQPENNYKTTPPVLDSDGSFFLYSKLTVDKSRWQQGNVFSCSVMHEALHNHYTQKSLSLSPGKHHHHHH
heavy 2: EVQLVESGGGLVQPGGSLRLSCAASGFTFNTYAMNWVRQAPGKGLEWVARIRSKYNNYATYYADSVKGRFTISRDDSKSILYLQMNSLRAEDTAVYYCVRHGNFGNSYVSWFAYWGQGTLVTVSSGGGGSGGGGSGGGGSDIQVTQSPSSLSASVGDRVTITCRSSTGAVTTSNYANWVQQKPGKAFKGLIGGTNKLAPGVPSRFSGSLSGDDATLTISSLQPEDFATYYCALWYSNLWVFGQGTKLEIKGGGGSDKTHTCPPCPAPEAAGGPSVFLFPPKPKDTLMISRTPEVTCVVVDVSHEDPEVKFNWYVDGVEVHNAKTKPREEQYNSTYRVVSVLTVLHQDWLNGKEYKCKVSNKALGAPIEKTISKAKGQPREPQVYTLPPIRELMTSNQVSLSCAVKGFYPSDIAVEWESNGQPENNYKTTPPVLDSDGSFFLVSKLTVDKSRWQQGNVFSCSVMHEALHNHYTQKSLSLSPGK
light: DIQMTQSPSSLSASVGDRVTITCRSTKSLLHSNGITYLYWYQQKPGKAPKLLIYQMSNLASGVPSRFSSSGSGTDFTLTISSLQPEDFATYYCAQNLEIPRTFGQGTKVELKRTVAAPSVFIFPPSDEQLKSGTASVVCLLNNFYPREAKVQWKVDNALQSGNSQESVTEQDSKDSTYSLSSTLTLSKADYEKHKVYACEVTHQGLSSPVTKSFNRGEC
modifications: REGION 1..452: note = Ab1007 Knob HC; REGION 1..482: note = Ab1007 Hole HC; REGION 1..219: note = Ab1007 Knob LC
notes: conventional TCE positive control
real-time TDCC of HCT-116-NR target cells (HCT-116-NR target cells): depleted of target cells

B3: Ab0637: LS2B; HC: V29F+M100eL+M100hL on Ab0596; parent of R4b (antibody, V domains shown)
VH: EVQLVESGGGLVQPGGSLRLSCAASGFDFSSYSIHWVRQAPGKGLEWVASISPYYGSTYYADSVKGRFTISADTSKNTAYLQMNSLRAEDTAVYYCARYYEWYKYSLYLGSLGFDYWGQGTLVTVSS
VL: DIQMTQSPSSLSASVGDRVTITCRASQSVSSAVAWYQQKPGKAPKLLIYSASSLYSGVPSRFSGSRSGTDFTLTISSLQPEDFATYYCQQGGYSLITFGQGTKVEIK
TM (° C.) ([1]; Table 13): 78.3 °C
SEC RT (UPLC-SEC retention time): 17.205 min
